One molecule from paper PMC4175418 (Methods in molecular biology (Clifton, N.J.), 2014) can be followed below.

Where only a bound is given, the exact number is not on record here.

The target in the test is HIV-1 Rev (HIV-1, UniProt P04618).
HIV-1 Rev, sequence (P04618 whole entry): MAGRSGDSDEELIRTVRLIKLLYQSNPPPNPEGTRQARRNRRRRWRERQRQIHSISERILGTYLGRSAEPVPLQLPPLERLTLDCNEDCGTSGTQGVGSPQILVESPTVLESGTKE

B1: anti-Rev Fab (chimeric rabbit/human) (Fab, V domains shown)
VH: QEQLVESGGRLVTPGTALTLTCKVSGFSLSGFWLNWVRQAPGKGLEWVGAIYRGSGSEWYASWAKGRFTISDTSTTVTLKLTSPTTEDTATYFCAADTTDNGYFTIWGPGTLVTVSS
VL: ELVMTQTPSSVSEPVGGTVTIKCQASQSISSWLSWYQQKPGQPPKLLIYDASNLASGVPSRFMGSGSGTEYTLTISGVQREDAATYYCLGGYPAASYRTAFGGGTELEII
With B1, the dissociation constant (Kd) was below 0.1 nM and the “stoichiometry N” value is 1.
